Test results from patent US8211429 (dated 2012).
Where two headings read alike, the source gives them in different places.

T1: human NRP2 (human, UniProt O60462)
T1 chain: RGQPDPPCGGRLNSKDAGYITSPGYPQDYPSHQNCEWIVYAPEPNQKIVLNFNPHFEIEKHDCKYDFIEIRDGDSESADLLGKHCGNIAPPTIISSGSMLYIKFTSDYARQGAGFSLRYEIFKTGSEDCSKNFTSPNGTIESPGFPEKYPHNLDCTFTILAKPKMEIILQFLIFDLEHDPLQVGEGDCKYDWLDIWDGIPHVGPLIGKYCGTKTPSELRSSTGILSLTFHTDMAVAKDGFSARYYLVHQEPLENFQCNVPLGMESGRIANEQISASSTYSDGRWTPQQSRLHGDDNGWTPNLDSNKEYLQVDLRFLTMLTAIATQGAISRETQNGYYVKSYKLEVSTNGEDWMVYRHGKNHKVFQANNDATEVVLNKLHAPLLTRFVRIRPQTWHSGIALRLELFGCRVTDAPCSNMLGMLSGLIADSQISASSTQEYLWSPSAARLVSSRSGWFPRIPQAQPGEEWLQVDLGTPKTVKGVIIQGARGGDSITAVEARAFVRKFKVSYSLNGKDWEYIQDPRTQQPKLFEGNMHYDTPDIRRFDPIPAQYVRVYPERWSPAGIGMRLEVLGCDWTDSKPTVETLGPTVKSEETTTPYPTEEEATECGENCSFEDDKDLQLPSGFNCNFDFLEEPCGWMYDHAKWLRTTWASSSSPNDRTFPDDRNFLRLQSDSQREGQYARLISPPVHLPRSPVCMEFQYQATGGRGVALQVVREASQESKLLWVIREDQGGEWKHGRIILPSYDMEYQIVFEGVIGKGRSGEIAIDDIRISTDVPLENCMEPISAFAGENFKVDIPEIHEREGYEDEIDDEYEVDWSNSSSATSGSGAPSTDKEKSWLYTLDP

T2: murine NRP2 (mouse, UniProt O35375)
T2 chain: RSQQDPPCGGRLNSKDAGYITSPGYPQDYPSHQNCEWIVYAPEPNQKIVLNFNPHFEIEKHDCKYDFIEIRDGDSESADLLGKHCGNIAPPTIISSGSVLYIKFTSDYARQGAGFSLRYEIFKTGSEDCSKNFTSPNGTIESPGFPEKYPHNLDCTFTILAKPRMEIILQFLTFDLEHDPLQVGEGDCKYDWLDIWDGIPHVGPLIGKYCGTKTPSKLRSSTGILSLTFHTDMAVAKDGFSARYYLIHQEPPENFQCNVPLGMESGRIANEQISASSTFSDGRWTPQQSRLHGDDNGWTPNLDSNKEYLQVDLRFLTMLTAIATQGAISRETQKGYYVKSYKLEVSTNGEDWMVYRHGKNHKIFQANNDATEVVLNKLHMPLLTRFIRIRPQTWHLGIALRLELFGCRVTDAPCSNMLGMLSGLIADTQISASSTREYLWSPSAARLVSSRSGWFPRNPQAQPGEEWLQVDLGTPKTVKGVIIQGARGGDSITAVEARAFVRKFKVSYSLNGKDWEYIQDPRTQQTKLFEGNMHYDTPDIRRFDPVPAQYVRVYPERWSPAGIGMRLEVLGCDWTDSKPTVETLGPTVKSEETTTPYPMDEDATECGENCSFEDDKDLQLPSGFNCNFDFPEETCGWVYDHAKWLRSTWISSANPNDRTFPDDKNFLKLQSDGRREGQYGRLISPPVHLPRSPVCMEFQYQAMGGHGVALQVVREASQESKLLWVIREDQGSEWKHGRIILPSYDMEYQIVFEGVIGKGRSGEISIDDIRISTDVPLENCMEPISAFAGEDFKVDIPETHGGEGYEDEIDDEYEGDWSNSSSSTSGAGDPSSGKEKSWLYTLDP

T3: murine NRP1 (mouse, UniProt P97333)
T3 chain: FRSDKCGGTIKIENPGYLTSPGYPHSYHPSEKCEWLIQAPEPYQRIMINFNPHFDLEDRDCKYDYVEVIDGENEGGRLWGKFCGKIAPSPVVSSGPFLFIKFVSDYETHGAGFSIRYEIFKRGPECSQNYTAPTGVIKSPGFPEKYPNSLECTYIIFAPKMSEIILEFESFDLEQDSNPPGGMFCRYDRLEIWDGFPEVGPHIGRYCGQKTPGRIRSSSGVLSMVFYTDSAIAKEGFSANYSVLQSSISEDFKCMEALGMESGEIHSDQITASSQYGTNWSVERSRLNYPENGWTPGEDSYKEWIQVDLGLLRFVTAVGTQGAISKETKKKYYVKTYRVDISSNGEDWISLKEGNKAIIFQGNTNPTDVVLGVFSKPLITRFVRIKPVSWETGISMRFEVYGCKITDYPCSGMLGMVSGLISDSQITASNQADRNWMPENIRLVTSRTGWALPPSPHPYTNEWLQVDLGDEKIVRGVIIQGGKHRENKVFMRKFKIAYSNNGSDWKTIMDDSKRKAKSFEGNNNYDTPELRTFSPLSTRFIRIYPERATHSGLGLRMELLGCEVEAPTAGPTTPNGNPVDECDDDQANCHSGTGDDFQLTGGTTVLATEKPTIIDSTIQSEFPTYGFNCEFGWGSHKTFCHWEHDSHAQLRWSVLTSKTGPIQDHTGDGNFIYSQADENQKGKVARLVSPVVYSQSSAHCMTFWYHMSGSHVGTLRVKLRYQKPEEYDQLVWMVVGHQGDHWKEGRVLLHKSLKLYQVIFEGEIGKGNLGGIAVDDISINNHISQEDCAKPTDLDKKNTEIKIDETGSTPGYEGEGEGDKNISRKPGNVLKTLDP


Columns and labels:
[1] = biological target: T1, human NRP2; experiment: SPR up to 500 nM
[2] = biological target: BSA (bovine, UniProt P02769); experiment: SPR up to 500 nM
Chain of BSA (P02769 25-607): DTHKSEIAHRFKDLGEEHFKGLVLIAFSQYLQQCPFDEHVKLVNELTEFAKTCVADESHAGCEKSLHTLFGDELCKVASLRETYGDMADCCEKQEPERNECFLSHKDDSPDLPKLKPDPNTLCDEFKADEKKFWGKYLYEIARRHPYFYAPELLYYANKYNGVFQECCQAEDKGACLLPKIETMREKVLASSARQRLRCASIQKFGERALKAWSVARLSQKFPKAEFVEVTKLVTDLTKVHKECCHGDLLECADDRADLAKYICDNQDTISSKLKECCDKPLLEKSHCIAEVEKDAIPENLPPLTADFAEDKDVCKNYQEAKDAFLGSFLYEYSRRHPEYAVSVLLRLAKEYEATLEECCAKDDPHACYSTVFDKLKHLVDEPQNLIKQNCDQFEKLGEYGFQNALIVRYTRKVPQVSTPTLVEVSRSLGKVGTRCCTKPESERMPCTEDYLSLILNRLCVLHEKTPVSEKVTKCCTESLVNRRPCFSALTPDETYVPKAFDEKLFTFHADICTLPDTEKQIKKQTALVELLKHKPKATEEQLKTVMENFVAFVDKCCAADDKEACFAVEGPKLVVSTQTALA

[3] = biological target: T4, ErbB2-ECD (human, UniProt P04626); experiment: SPR up to 500 nM
[4] = biological target: T2, murine NRP2; experiment: SPR up to 500 nM
[5] = biological target: T2, murine NRP2; experiment: SPR
[6] = biological target: T1, human NRP2; experiment: SPR
[7] = biological target: T4, ErbB2-ECD; experiment: SPR
[8] = biological target: T3, murine NRP1; experiment: SPR 25C
[9] = biological target: T5, human NRP1 (human, UniProt O14786); experiment: SPR 25C
[10] = biological target: T3, murine NRP1; experiment: competition phage ELISA
[11] = biological target: T5, human NRP1; experiment: competition phage ELISA
[12] = biological target: T3, murine NRP1; experiment: competition phage ELISA
[13] = biological target: T5, human NRP1; experiment: competition phage ELISA; remark: listed apart in the source

Binder	binding result [1]	binding result [2]	binding result [3]	binding result [4]	binding result [5]	binding result [6]	binding result [7]	Kd [8] [nM]	Kd [9] [nM]	IC50 [10] [nM]	IC50 [11] [nM]	IC50 [12] [nM]	IC50 [13] [nM]
YW64.3 (antibody, V domains shown) VH: EVQLVESGGGLVQPGGSLRLSCAASGFSFSSEPISWVRQAPGKGLEWVSSITGKNGYTYYADSVKGRFTISADTSKNTAYLQMNSLRAEDTAVYYCARWGKKVYGMDVWGQGTLVTVSS VL: DIQMTQSPSSLSASVGDRVTITCRASQSISSYLAWYQQKPGKAPKLLIYGASSRASGVPSRFSGSGSGTDFTLTISSLQPEDFATYYCQQYMSVPITFGQGTKVEIKR	no binding	no binding	no binding	no binding	–	–	–	–	–	–	–	–	–
YW107.4.87 (antibody, V domains shown) VH: EVQLVESGGGLVQPGGSLRLSCAASGFTFSSYAMSWVRQAPGKGLEWVSQISPAGGYTNYADSVKGRFTISADTSKNTAYLQMNSLRAEDTAVYYCARELPYYRMSKVMDVWGQGTLVTVSS VL: DIQMTQSPSSLSASVGDRVTITCRASQYFSSYLAWYQQKPGKAPKLLIYGASSRASGVPSRFSGSGSGTDFTLTISSLQPEDFATYYCQQYLGSPPTFGQGTKVEIKR	–	–	–	–	no binding	no binding	–	–	–	–	–	–	–
YW107.4 (antibody, V domains shown) VH: EVQLVESGGGLVQPGGSLRLSCAASGFTFSSYAMSWVRQAPGKGLEWVSQISPAGGYTNYADSVKGRFTISADTSKNTAYLQMNSLRAEDTAVYYCARELPYYRMSKVMDVWGQGTLVTVSS VL: DIQMTQSPSSLSASVGDRVTITCRASQSISSYLAWYQQKPGKAPKLLIYGASSRASGVPSRFSGSGSGTDFTLTISSLQPEDFATYYCQQYYSSPLTFGQGTKVEIKR	no binding	no binding	–	no binding	–	–	no binding	11	5	38	6.1	38	6.1
